Laboratory results from patent EP2360247A1.
“And” between values parts separate entries of the source, which are not always exact repeats. Equal entries are not always repeated.

Assays:
Assay in all cases: cell-based or functional assay
[1] = molecular target: subtilisin 309 variant S99SD+S99A+N155ND (B. Lentus) (UniProt P29600)
[2] = molecular target: subtilisin 309 variant L42LN (B. Lentus) (UniProt P29600)
[3] = molecular target: subtilisin 309 variant L217LP+S99SD+S99A (B. Lentus) (UniProt P29600)
[4] = molecular target: subtilisin 309 variant S99D+S101R+S103A+V104I+G160S+A194P+V199M+V205I+*216aD (B. Lentus) (UniProt P29600)
[5] = molecular target: subtilisin 309 variant S99SD+S99A+S216SDP (B. Lentus) (UniProt P29600)
[6] = molecular target: subtilisin 309 variant S99D+S101R+S103A+V104I+G160S+A194P+V199M+V205I+*216aE (B. Lentus) (UniProt P29600)
[7] = molecular target: subtilisin 309 variant S99SD+S99A+N155NR (B. Lentus) (UniProt P29600)
[8] = molecular target: Savinase® (subtilisin 309, BLSAVI) (B. Lentus) (UniProt P29600)
[9] = molecular target: subtilisin 309 variant S99SD+S99A+N155NA (B. Lentus) (UniProt P29600)

Substance: trypsin inhibitor type IV-0 (Sigma T-1886) (from UniProt P10184 69-517)
- Residual Activity (%) [1]: 10.7% and 7.1%
- Residual Activity (%) [2]: 69.2%
- Residual Activity (%) [3]: 97%
- Residual Activity (%) [4]: 24%
- Residual Activity (%) [5]: 35%
- Residual Activity (%) [6]: 25.4%
- Residual Activity (%) [7]: 6.5%
- Residual Activity (%) [8]: < 5%
- Residual Activity (%) [9]: 7.4%
